Results taken from US7629135B2, “Toll-like receptor agonists and antagonists and methods of use thereof” (The Board of Trustees of the University of Illinois, priority 2006, dated 2009).

Test system: Human peripheral blood monocytes (PBMC)
Assay: SAA-induced G-CSF secretion in human PBMC (ELISA)
Format: cell-based
Conditions: SAA 1 μM
Protocol: SAA induces G-CSF expression in monocytes and macrophages: To determine whether SAA plays a role in neutrophilia, the ability of SAA to stimulate G-CSF expression was investigated. Human peripheral blood monocytes (PBMC) were incubated with SAA, and the concentration of secreted G-CSF in the culture medium was determined at various time points after stimulation. The concentration of SAA used in this experiment (1 μM) was well within its physiological range (0.08 μM to 80 μM). […] Since subsequent studies used mice for measurement of G-CSF secretion and neutrophilia, SAA-induced G-CSF expression in mouse bone marrow derived macrophages (BMDM) was determined, of which 98% were F4/80^+ CD14^+ based on flow cytometry analysis. […] The basal level of G-CSF remained stable at approximately 42 pg/ml/10^6 cells over the entire course of incubation.
Cell preparation and culture: Human peripheral blood monocytes were prepared from fresh, heparinized venous blood by Ficoll-Hypaque density-gradient centrifugation. […]
Measurement of G-CSF expression: To measure the secreted G-CSF from human monocytes and mouse macrophages in vitro, cells were placed in serum-free DMEM medium and stimulated with the indicated ligands. […] Real-time quantitative PCR was performed on a ABI PRISM 7000 Sequence Detection System (Applied Biosystems) as described previously (He et al., 2006). […]

B1: SAA: Recombinant human SAA purchased from PeproTech; major acute-phase protein of 104 amino acids (protein, UniProt P0DJI8 19-122, looked up)
Serum amyloid A-1 protein: RSFFSFLGEAFDGARDMWRAYSDMREANYIGSDKYFHARGNYDAAKRGPGGAWAAEVITDARENIQRFFGHGAEDSLADQAANEWGRSGKDPNHFRPAGLPEKY
secreted G-CSF (after 4 h of stimulation): 2,546 pg/ml/10^6 cells
secreted G-CSF (end of 24 h incubation): 7,340 pg/ml/10^6 cells
